Source: patent EP3075390A1 (Immunomedics Inc., dated 2016)
Each block holds one molecule with its values, some of them ahead of it.

Assays:
[1] = molecular target: T1, recombinant human IGF-1R (rhIGF-1R) (human, UniProt P08069 31-935); experiment: labeled antibody on rhIGF-1R-coated beads; competitor: unlabeled 3B7
T1 construct: extracellular domain; also called immobilized recombinant human IGF-1R; IGF-1R-coated beads

[2] = molecular target: T1, recombinant human IGF-1R (rhIGF-1R); experiment: labeled antibody on rhIGF-1R-coated beads; competitor: unlabeled 17-69
[3] = molecular target: T1, recombinant human IGF-1R (rhIGF-1R); experiment: labeled antibody on rhIGF-1R-coated beads; competitor: unlabeled hR1
[4] = molecular target: T1, recombinant human IGF-1R (rhIGF-1R); experiment: labeled antibody on rhIGF-1R-coated beads; competitor: unlabeled R1
[5] = molecular target: T1, recombinant human IGF-1R (rhIGF-1R); experiment: labeled antibody on rhIGF-1R-coated beads; competitor: unlabeled MAB391
[6] = molecular target: T1, recombinant human IGF-1R (rhIGF-1R); experiment: labeled antibody on rhIGF-1R-coated beads; competitor: unlabeled 24-31
[7] = molecular target: T1, recombinant human IGF-1R (rhIGF-1R); experiment: labeled antibody on rhIGF-1R-coated beads; competitor: unlabeled cR1
[8] = molecular target: T1, recombinant human IGF-1R (rhIGF-1R); experiment: labeled antibody on rhIGF-1R-coated beads; competitor: unlabeled 1H7
[9] = molecular target: T1, recombinant human IGF-1R (rhIGF-1R); experiment: labeled antibody on rhIGF-1R-coated beads; competitor: unlabeled 2C8
[10] = molecular target: T1, recombinant human IGF-1R (rhIGF-1R); experiment: labeled antibody on rhIGF-1R-coated beads; competitor: unlabeled 1-2
[11] = molecular target: T1, recombinant human IGF-1R (rhIGF-1R); experiment: labeled antibody on rhIGF-1R-coated beads; competitor: unlabeled 24-57
[12] = molecular target: T1, recombinant human IGF-1R (rhIGF-1R); experiment: labeled antibody on rhIGF-1R-coated beads; competitor: unlabeled αIR-3
[13] = molecular target: T1, recombinant human IGF-1R (rhIGF-1R); experiment: labeled antibody on rhIGF-1R-coated beads; competitor: unlabeled 24-60
[14] = molecular target: IGF-1R and EGP-1 together on MCF-7, DU-145 or ME-180 cells; experiment: flow cytometry (FACScan) on MCF-7 cells; structural control construct
EGP-1 [15] = molecular target: EGP-1 (UniProt P09758); experiment: flow cytometry (FACScan) on DU-145 cells
EGP-1 [16] = molecular target: EGP-1 (UniProt P09758); experiment: flow cytometry (FACScan) on ME-180 cells
EGP-1 [17] = molecular target: EGP-1 (UniProt P09758); experiment: flow cytometry (FACScan) on MCF-7 cells
[18] = molecular target: IGF-1R on human cancer cell lines (human) (UniProt P08069); experiment: 125I-IGF-1 binding to MCF-7L cells with antibody at 100 ng/mL
[19] = molecular target: IGF-1R on human cancer cell lines (human) (UniProt P08069); experiment: 125I-IGF-1 binding to MCF-7L cells with antibody at 1000 ng/mL
[20] = molecular target: IGF-1R and EGP-1 together on MCF-7, DU-145 or ME-180 cells; experiment: flow cytometry (FACScan) on DU-145 cells; control antibody
[21] = molecular target: IGF-1R and EGP-1 together on MCF-7, DU-145 or ME-180 cells; experiment: flow cytometry (FACScan) on ME-180 cells; control antibody
[22] = molecular target: IGF-1R and EGP-1 together on MCF-7, DU-145 or ME-180 cells; experiment: flow cytometry (FACScan) on MCF-7 cells; control antibody
[23] = molecular target: IGF-1R on human cancer cell lines (human) (UniProt P08069); experiment: flow cytometry (FACScan) on DU-145 cells
[24] = molecular target: IGF-1R on human cancer cell lines (human) (UniProt P08069); experiment: flow cytometry (FACScan) on ME-180 cells
[25] = molecular target: IGF-1R on human cancer cell lines (human) (UniProt P08069); experiment: flow cytometry (FACScan) on MCF-7 cells
[26] = molecular target: T1, recombinant human IGF-1R (rhIGF-1R); experiment: PE-tagged MAB391 on IGF-1R-coated beads with R1 at 100 µg/mL
[27] = molecular target: T2, recombinant human insulin receptor (rhIR) (human, UniProt P06213-2 28-944, limits assumed); experiment: hybridoma screening, assay not described
T2 construct: also called recombinant human IR

[28] = molecular target: T2, recombinant human insulin receptor …; experiment: ELISA on immobilized rhIR
[29] = molecular target: T1, recombinant human IGF-1R (rhIGF-1R); experiment: ELISA on immobilized rhIGF-1R (FIG. 3)

T1 sequence (P08069 31-935): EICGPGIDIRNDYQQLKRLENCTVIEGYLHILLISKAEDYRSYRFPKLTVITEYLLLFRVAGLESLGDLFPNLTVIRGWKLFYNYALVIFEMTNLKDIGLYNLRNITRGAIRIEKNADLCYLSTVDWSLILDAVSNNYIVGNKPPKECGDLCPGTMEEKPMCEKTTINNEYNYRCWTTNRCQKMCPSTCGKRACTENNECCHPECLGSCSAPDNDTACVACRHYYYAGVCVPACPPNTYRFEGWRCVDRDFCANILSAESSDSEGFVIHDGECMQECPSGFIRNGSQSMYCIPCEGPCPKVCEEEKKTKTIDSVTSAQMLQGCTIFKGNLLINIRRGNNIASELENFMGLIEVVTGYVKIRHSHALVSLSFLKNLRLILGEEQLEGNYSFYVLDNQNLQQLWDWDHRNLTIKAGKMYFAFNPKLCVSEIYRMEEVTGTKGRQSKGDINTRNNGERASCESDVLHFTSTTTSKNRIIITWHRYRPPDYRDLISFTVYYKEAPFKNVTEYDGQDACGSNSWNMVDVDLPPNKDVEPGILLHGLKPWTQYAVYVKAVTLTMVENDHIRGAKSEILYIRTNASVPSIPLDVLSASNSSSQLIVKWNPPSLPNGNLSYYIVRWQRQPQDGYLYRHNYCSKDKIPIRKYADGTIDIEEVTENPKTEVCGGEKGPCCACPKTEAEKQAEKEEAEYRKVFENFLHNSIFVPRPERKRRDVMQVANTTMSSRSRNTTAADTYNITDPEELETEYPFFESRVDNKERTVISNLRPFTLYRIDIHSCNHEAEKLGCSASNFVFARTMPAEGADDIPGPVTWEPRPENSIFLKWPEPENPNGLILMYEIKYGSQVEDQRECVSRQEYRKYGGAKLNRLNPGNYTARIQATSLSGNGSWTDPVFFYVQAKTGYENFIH
Sequence of EGP-1 (P09758 27-323): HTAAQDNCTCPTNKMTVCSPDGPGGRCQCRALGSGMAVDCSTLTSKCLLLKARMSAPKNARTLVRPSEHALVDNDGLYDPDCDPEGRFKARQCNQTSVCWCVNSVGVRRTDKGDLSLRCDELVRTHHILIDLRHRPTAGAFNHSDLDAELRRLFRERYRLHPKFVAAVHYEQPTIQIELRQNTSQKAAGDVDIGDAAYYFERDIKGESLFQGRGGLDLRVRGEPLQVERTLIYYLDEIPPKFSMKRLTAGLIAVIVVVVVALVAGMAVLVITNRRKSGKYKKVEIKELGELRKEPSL
Sequence of IGF-1R on human cancer cell lines (human) (P08069 31-1367): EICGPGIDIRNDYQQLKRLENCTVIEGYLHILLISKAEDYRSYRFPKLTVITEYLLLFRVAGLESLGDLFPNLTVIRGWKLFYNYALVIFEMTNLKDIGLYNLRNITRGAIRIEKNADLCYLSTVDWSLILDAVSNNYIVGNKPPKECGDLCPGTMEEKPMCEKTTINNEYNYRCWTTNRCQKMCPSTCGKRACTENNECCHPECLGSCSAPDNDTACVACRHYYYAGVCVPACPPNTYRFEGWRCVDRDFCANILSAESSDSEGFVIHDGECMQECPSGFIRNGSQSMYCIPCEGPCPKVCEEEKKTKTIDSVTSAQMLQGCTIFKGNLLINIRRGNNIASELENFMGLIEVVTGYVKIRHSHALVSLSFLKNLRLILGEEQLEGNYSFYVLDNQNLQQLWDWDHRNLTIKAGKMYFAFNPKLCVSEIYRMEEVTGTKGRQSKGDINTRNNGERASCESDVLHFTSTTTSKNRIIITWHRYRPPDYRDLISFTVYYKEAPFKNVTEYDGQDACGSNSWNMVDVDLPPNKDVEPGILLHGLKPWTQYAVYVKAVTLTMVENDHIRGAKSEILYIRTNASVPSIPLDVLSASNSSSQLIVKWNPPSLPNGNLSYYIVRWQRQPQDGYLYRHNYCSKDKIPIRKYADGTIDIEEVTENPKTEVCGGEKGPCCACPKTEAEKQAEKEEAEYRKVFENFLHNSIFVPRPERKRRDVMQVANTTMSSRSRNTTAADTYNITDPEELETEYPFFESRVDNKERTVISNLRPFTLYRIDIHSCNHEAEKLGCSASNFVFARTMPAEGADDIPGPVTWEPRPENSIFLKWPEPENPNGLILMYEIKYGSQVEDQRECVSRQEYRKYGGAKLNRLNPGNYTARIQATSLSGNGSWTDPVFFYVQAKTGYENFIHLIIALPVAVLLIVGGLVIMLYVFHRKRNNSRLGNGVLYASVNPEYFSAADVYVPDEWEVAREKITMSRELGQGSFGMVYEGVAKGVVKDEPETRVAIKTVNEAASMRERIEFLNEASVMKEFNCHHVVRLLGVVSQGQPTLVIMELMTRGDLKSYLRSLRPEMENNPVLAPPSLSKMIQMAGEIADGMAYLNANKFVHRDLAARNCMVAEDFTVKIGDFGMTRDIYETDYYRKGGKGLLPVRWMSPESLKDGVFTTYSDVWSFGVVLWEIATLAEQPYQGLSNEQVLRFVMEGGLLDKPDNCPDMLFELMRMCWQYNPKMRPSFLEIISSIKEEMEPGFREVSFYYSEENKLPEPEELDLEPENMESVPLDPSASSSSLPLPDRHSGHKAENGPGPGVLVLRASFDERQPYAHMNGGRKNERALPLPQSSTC
T2 sequence (P06213 other isoform, or with tags, fused parts or gaps limits assumed): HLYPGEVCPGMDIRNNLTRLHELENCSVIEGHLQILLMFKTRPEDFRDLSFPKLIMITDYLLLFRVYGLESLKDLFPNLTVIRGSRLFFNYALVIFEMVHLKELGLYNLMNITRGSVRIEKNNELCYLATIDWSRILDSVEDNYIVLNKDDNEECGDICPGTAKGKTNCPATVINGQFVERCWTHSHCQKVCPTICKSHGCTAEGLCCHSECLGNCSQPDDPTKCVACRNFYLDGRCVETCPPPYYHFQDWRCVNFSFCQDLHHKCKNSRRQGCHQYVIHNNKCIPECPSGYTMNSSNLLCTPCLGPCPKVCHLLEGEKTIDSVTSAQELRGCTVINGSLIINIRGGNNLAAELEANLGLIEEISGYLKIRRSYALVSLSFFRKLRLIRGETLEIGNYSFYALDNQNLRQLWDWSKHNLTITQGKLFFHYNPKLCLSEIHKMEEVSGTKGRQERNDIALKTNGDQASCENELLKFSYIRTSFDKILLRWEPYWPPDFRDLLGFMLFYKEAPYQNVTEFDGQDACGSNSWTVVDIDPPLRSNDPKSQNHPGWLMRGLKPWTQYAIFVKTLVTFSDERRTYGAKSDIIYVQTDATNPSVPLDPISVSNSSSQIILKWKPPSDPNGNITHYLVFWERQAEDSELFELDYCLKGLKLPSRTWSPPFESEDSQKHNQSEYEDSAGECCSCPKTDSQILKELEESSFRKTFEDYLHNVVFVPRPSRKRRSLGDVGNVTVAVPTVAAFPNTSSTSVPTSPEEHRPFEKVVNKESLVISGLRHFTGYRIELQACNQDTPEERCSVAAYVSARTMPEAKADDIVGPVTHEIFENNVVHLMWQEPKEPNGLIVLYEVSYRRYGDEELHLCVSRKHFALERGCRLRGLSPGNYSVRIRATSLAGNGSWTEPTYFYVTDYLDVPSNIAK

% binding of labeled antibody [1]: 76%
% binding of labeled antibody [2]: 89%
% binding of labeled antibody [3]: 107%
% binding of labeled antibody [4]: 86%
% binding of labeled antibody [5]: 0%
% binding of labeled antibody [6]: 52%
% binding of labeled antibody [7]: 97%
% binding of labeled antibody [8]: 115%
% binding of labeled antibody [9]: 97%
% binding of labeled antibody [10]: 95%
% binding of labeled antibody [11]: 87%
% binding of labeled antibody [12]: 0%
% binding of labeled antibody [13]: 0%
Molecule: anti-IGF-1R antibody αIR-3

% Positive [14]: 3.1%
MFI [14]: 2.11
Molecule: 22-20 (DNL construct of hLL2 IgG-AD2 and hA20 Fab-DDD2) (bispecific antibody)

% inhibition of the binding of PE-tagged MAB391 [26]: 50 to 60%
% binding of labeled antibody [1]: 117%
% binding of labeled antibody [3]: 0%
% binding of labeled antibody [4]: 0%
% binding of 125I-IGF-1 [18]: 71%
binding result [27]: no binding
% binding of labeled antibody [7]: 0%
% binding of labeled antibody [8]: 150%
% binding of 125I-IGF-1 [19]: 58%
% binding of labeled antibody [12]: 143%
% binding of labeled antibody [13]: 43%
B2: murine anti-IGF-1R antibody R1 (antibody, V domains shown)
VH: EVKLVESGGGLVQPGGSLKLSCATSGFTFSDYYMYWVRQTPEKRLEWVAYITNYGGSTYYPDTVKGRFTISRDNAKNTLYLQMSRLRSEDTAMYFCARQSNYDYDGWFAYWGQGTTVTVSS
VL: DIVMTQSHKFMSTSVGDRVSITCKASQEVGTAVAWYQQKPGQSPKLLIYWASTRHTGVPDRFTGSGSGTDFTLTISNVQSEDLADYFCQQYSNYPLTFGAGAKLELKR
notes: also called ML04R1; murine R1

More lines, now with the values behind:

Molecule: anti-IGF-1R antibody 24-60
% binding of labeled antibody [1]: 79%
% binding of labeled antibody [2]: 82%
% binding of labeled antibody [3]: 0%
% binding of labeled antibody [4]: 0%
% binding of labeled antibody [5]: 0%
% binding of labeled antibody [6]: 18%
% binding of labeled antibody [7]: 0%
% binding of labeled antibody [8]: 100%
% binding of labeled antibody [9]: 88%
% binding of labeled antibody [10]: 100%
% binding of labeled antibody [11]: 88%
% binding of labeled antibody [12]: 21%
% binding of labeled antibody [13]: 0%

Molecule: Hex-hRS7 (hexavalent DNL construct of hRS7 IgG-AD2 and hRS7 Fab-DDD2)
% Positive (EGP-1 [15]): 93.7%
MFI (EGP-1 [15]): 17
% Positive (EGP-1 [16]): 100%
MFI (EGP-1 [16]): 59.6
% Positive (EGP-1 [17]): 99.9%
MFI (EGP-1 [17]): 35.7

Molecule: mouse anti-IGF-1R monoclonal antibody MAB391
% binding of labeled antibody [4]: 40%
% binding of labeled antibody [5]: 0%
% binding of 125I-IGF-1 [18]: 54%
% binding of 125I-IGF-1 [19]: 38%

Molecule: human IgG (control) (antibody)
% Positive [20]: 1.44%
MFI [20]: 2.21
% Positive [21]: 1.37%
MFI [21]: 1.8
% Positive [22]: 2.34%
MFI [22]: 1.84

B1: humanized R1 antibody (hR1) (antibody, V domains shown)
VH: QVQLQESGGGVVQPGRSLRLSCSASGFTFSDYYMYWVRQAPGKGLEWVAYITNYGGSTYYPDTVKGRFTISRDNAKNTLFLQMDSLRPEDTGVYFCARQSNYDYDGWFAYWGQGTPVTVSS
VL: DIQLTQSPSSLSASVGDRVTITCKASQEVGTAVAWYQQKPGKAPKLLIYWASTRHTGVPSRFSGSGSGTDFTFTISSLQPEDIATYFCQQYSNYPLTFGQGTKVEIKR
% binding of labeled antibody [1]: 100%
% Positive [23]: 30.4%
MFI [23]: 5.33
% Positive [24]: 10.7%
MFI [24]: 3.65
% binding of labeled antibody [2]: 100%
% binding of labeled antibody [3]: 0%
% binding of labeled antibody [4]: 0%
% binding of labeled antibody [5]: 121%
% binding of labeled antibody [6]: 100%
% binding of labeled antibody [7]: 0%
% binding of labeled antibody [8]: 131%
% binding of labeled antibody [9]: 100%
% Positive [25]: 89.2%
MFI [25]: 9.93
% binding of labeled antibody [10]: 100%
% binding of labeled antibody [11]: 100%
% binding of labeled antibody [12]: 136%
% binding of labeled antibody [13]: 71%

B3: chimeric R1 antibody (cR1) (antibody, V domains shown)
VH: B2 VH
VL: B2 VL
notes: Mouse-human chimeric mAb of R1, R1 VH and VK in the pdHL2 vector with human constant regions; also called clones 709.2D2 and 710.2G2
binding result [28]: no binding
Kd [29]: ~0.1 nM
